Source: the DeepSol protein solubility set

Assay: soluble on expression in E. coli; label from the status in PepcDB or PDB records

| Sequence | soluble on expression in E. coli |
| --- | --- |
| MVDGKHRMVYNITRFSCPTFSLSASAAAVAGRLTPAVPQNTLSRKSCYGAATSAPSSSYNVMYQQQEDTGIDAFAQFGQQSQQYHPSPELSEQINASKCSPYLTEILVGCEQLIAEGEEDSPTWISAIRQRFEDPQMDEVSKKIGVKLIIEMAFTMEPNQFRTADPQNTFSNLLKTLSYEVKDFLRVFIVPTLGEYHEGRKQLENDSRVYMAVFYAEVFVKLTLDNGSRFDKIGAALADQIEEILKFQPKDEYMKCLLRAFKVAGAELDTSEDLKLRADHILTIMGGYAKGSPLLGDSVKAQIFSLIECRTRGWDRAAARGPVRSSAGAGGGGGCVADRGEHDSSFDDSTDNDLTEEERQFLESHLEQVESRRGAEEDYDEQEMMKEFGKFVKEELQQAELKSTSEMLQKLEIEKDTAGAATETDETTPKTEEK | not soluble |
| MSLTILNHTLGFPRVGLRRELKKAQESYWAGNSTREELLAVGRELRARHWDQQKQAGIDLLPVGDFAWYDHVLTTSLLLGNVPARHQNKDGSVDIDTLFRIGRGRAPTGEPAAAAEMTKWFNTNYHYMVPEFVKGQQFKLTWTQLLDEVDEALALGHKVKPVLLGPVTWLWLGKVKGEQFDRLSLLNDILPVYQQVLAELAKRGIEWVQIDEPALVLELPQAWLDAYKPAYDALQGQVKLLLTTYFEGVTPNLDTITALPVQGLHVDLVHGKDDVAELHKRLPSDWLLSAGLINGRNVWRADLTEKYAQIKDIVGKRDLWVASSCSLLHSPIDLSVETRLDAEVKSWFAFALQKCHELALLRDAVNSGDTAALAEWSAPIQARRHSTRVHNPAVEKRLAAITAQDSQRANVYEVRAEAQRARFKLPAWPTTTIGSFPQTTEIRTLRLDFKKGNLDANNYRTGIAEHIKQAIVEQERLGLDVLVHGEAERNDMVEYFGEHLDGFVFTQNGWVQSYGSRCVKPPIVIGDISRPAPITVEWAKYAQSLTDKPVKGMLTGPVTILCWSFPREDVSRETIAKQIALALRDEVADLEAAGIGIIQIDEPALREGLPLRRSDWDAYLQWGVEAFRINAAVAKDDTQIHTHMCYCEFNDIMDSIAALDADVITIETSRSDMELLESFEEFDYPNEIGPGVYDIHSPNVPSVEWIEALLKKAAKRIPAERLWVNPDCGLKTRGWPETRAALANMVQAAQNLRRGEGHHHHHH | soluble |
| GPGSMPTLAVAKDYICRLIGKSYTDEEFSDLCFQFGLELDDITSEKEMFMREQGKSAKANVAPAEAPAHLSEEKLYKIDTPANRHDLLTAEGMACALRVFMGTMPLPNYRVLNRASPLYRMSVEKSVKNVRDYVVCAVLRNIHFNERSYNSFIDYQERLHAGLARRRTLASVGTHDLDKVNTTDFIFACRPRETVRFVPLRQTRELNCAGDGLAQYYAEDRHIGKYVPLISSFPTYPVVYDGTGQNVLSLPPIINSHYSAISVDTRNIFIECTAPDHYKAQVLVNQLVCAFSVYCEDPFTVEAVQVNYEEPTPDGTRSLVTPTMETKEMTMNIERLNSIIGIKMKSGAECAQLLKMMMYTIKETTESEVTVTVPPMRTDVIGVADVMEDVAIAYGYDNITYVECKTHGPVTQTPLSKVAQLLRTEMACAGYTELLTLSLCSRADAFESLGRVDNDVAAHIANPQTMEFQVCRPSLLPGILKTLATNKSKPLPQRFFECADVVLLDNERNFPPVLELKTDYASCGARNQRHLAAAHCNGSSSGFESIHGLTELALLKLGVPSKAAIADDYEGDYYTLEKGEDGAFFPGRAMDIILHRAGQAVRIGHLGVIHPNTLKAYDIPSPCSYMELNIQFLCVPL | not soluble |
| MGHHHHHHSHMLWECKQLGAHSPSTLLTTLMFFNTKYFLLKTVDQHMKLAFSKVLRQTKKNPSNPKDKSTSIRYLKALGIHQTGQKVTDDMYAEQTENPENPLRCPIKLYDFYLFKCPQSVKGRNDTFYLTPEPVVAPNSPIWYSVQPISREQMGQMLTRILVIREIQEAIAVANASTMH | not soluble |
| MGSDKIHHHHHHMQVRRFGRTNWNVSEIGYGMWGASGWKGSDDSQSEQSLDLAVSKGVNFFDTAWGYGEGHSEQLLGKLVKRHQSKKIYVATKIPPMNFKWPSKKSYTIGECFPVSHIKEYTETSLKNLGVEKIDLMQFHVWEDAWATDESWQRAVEDLQKEGKVDAFGISVNRWEPENCLETLKTGLIDSVQVIYNIFDQAPEDALLPLCKKLDIAVIARVPFDEGTLTGTITKDTTFEEGDWRASYFVPENLISSAEHADRLRPILPSGMTMAEMALRFILMNDDIATTIPGMRKERNVLANTGVSDGKKLSLDLYNELKKHRWDREPTSWSQ | not soluble |
| MGSDKIHHHHHHMSINSREVLAEKVKNAVNNQPVTDMHTHLFSPNFGEILLWDIDELLTYHYLVAEVMRWTDVSIEAFWAMSKREQADLIWEELFIKRSPVSEACRGVLTCLQGLGLDPATRDLQVYREYFAKKTSEEQVDTVLQLANVSDVVMTNDPFDDNERISWLEGKQPDSRFHAALRLDPLLNEYEQTKHRLRDWGYKVNDEWNEGSIQEVKRFLTDWIERMDPVYMAVSLPPTFSFPEESNRGRIIRDCLLPVAEKHNIPFAMMIGVKKRVHPALGDAGDFVGKASMDGVEHLLREYPNNKFLVTMLSRENQHELVVLARKFSNLMIFGCWWFMNNPEIINEMTRMRMEMLGTSFIPQHSDARVLEQLIYKWHHSKSIIAEVLIDKYDDILQAGWEVTEEEIKRDVADLFSRNFWRFVGRNDHVTSVKVEQQT | not soluble |
| MSLNATIVDIARRANVTNITVSRTFNQPGLVKQETREKIHAIAKELNYVPNAFAQGLKRSSSQIIGIVTSSMYNPFYSELIQTVSRIARTQCYQIMLFDTDGSEEAEMEAIQALFGYKACGILLSPVRDDKNYQPAYLDLAETYRVPLILIDRDIYNRQLSGVFLNNKEIGLLAGKYLSEQPERKMLIIGGPAESEITRVRIEGIINALENKKNDVHIINGDYDFISQEAAVRDYLSSPQNQPDYIIGLNGILTLGAIAICHELKIYNNIKFFSIDEPPKAADYGLHIAGVYHDTQMLGEIAAELLFNAIKKPHNDQAVRREFFTGSLLTHEGHHHHHH | soluble |
| MSLKTLSLCPICLKRIPATILEEDGKIIIKKTCPEHGEFKDIYWGDAELYKKFDKYEFIGKIEVTNTKVKNGCPYDCGLCPNHKSTTILANIDVTNRCNLNCPICFANANKSGKVYEPSFEDIKRMMENLRKEIPPTPAIQFAGGEPTVRSDLPELIKLARDMGFLHVQLATNGIKLKNINYLKKLKEAGLSTIYLQFDGISEKPYLVARGKNLLPIKQKVIENCKKVGFDSVVLVPTLVRGVNDNEVGGIIRYAAENVDVVRGINFQPVSFTGRVDEKTLLEGRITIPDFIKLVEEQTDGEITEEDFYPVPSVAPISVLVEKLTNDRKPTLSSHQHCGTSTYVFVDEDGKLIPITRFIDVEGFLEIVKEKIEEIGKSKMHDVKVLGEIALKLPSLIDLDKAPKSVNIKKIIDLILSVLKSDYSALAELHYHMLMISCMHFMDAYNFDVKRVMRCCIHYATPDDRIIPFCTYNTLHRQEVEEKFSIPLEEWKRMHKIGGEDDREDYEGHHHHHH | soluble |
| MGSDKIHHHHHHVTFFERYSRVLFERYQGKVKYWLTFNEINGAQFMPMLSLGMAVREDENMLQSTYQGLHHQFVASSLATKAAREIDPTMQIGCMLIAAPVYPFSSNPVDVQFALEEERMMNYFCGDVHVRGAYPAFAGRFFSENNIELVVEDGDLELLRDYTVDFFSLSYYMSRTEKAEKDGNEAGGNIMSGVKNPYLKASDWGWEINPDGLRIILNKLYDRYQIPLFIVENGLGAYDEIIASNGATLTQTSVSK | not soluble |
| GPGSMVALIDTSCYSADCTLSALVPQHAMKPYRLLVTMELIASLGLKRFCRTVVPPPIGIKELLTYHAEDYILNLGLHSNRSWLWNTEVSKVTFSGDCPPVEGIVEYSLSTVSGSLMAAVLLNSGAVDTAIHWGGGMHHAKCGECSGFCYVNDIVIAIIELLKCHDRVLYVDLDMHHGDGVDEAFCRSRRVFTLSLHKFGESFFPGTGHPRDVGIGNGRHYTMNLAMWDGVDDFYYTTVFERALRSIVKRFNPNVVVLQCGADSLAGDRLGHFNLSSWGHGKCVEEVKKLGLPMLVVGGGGYTLRNVAKLWAYETSILCGKRLPLNTVIPLHRMPLSGWLFEESPQLLVSQDEENKPLPGVNVQRSFRVIIEQIDKHCPNIMTV | not soluble |
| MSVAEFDADVIVDARDCIMGRVASQVAEQALDGETVAVVNAERAVITGREEQIVEKYEKRVDIGNDNGYFYPKRPDGIFKRTIRGMLPHKKQRGREAFESVRVYLGNPYDEDGEVLDGTSLDRLSNIKFVTLGEISETLGANKTW | soluble |
| MGGSHHHHHHGMASALASEAPSPPRSPPPPTSPEPELAQLRRKVEKLERELRSCKRQVREIEKLLHHTERLYQNAESNNQELRTQVRGPPQPRAPSSPGEAFEARDSLGRGPWQGLRTTVEYLK | not soluble |
| MMIIGINGSPRKNGNTIEMLKSALDGAKAQGAETELINLYDYNYKGCVSCFSCKLKGGRSYGKCALKDDLKPILEKIEKADAFILASPIYFGMVTGEMRSFMERLLFQYLVYDKDHSSLFNRKIKTGFIYTMNVPETYLDSVGYNKLFESNEATLKRIFGASEYILSTDTYQFDDYSKYEASMFDVEAKKKRREEVFPEDCKRAYEMGASFVKLEHHHHHH | not soluble |
| MSATAGRVVRAGQHAVRTVAPIKSNNSAEARMSVLAAYKEFQRLTPKFWWDFGLHDMPLGVFRAVIKKQFTKNGHLTDVRVVDRLVGETHQHMKSIRYAFYNPDHVRNYLFAENVEAKPKDFLSKFLNGKE | not soluble |
| MGSDKIHHHHHHMNEIAEVLPESMKNALSEIPEQQWLEIEEVRIRINRPVELIRRGQPVYLSYAGTAEDAHLILSRLSNYSMYTLEEELKKGYVTIRGGHRVGLAGRVITENGGVKGLRDIASFNIRIARQKLGIAEPLLPYLYQNSWLNTLIIGPPQTGKTTLLRDLARLSSTGKKNMLPVKTGIVDERSEIAGCLRGIPQHQFGQRIDVLDACPKAEGLMMMIRSMSPEVMIVDEIGRMEDTDALLEALHAGVSVIVSAHGWSISDLMKRPSLKRLWEERAFDRYLELSRAKGPGTVSQIYDKDGNVLSRTTGVKTC | not soluble |
| MASTKDEVVRMSVDEYWEDIKDDYLIQLANTDPNEVYPSNNPGPTTADGQINFECHCVGHLVGSPCGFEFREAITCQKTNSDGEIEQGACGKELMSFMECVTRTQCFGTGDNDKK | not soluble |
| MQQLINSLFMEAFANPWLAEQEDQARLDLAQLVAEGDRLAFSTDSYVIDPLFFPGGNIGKLAICGTANDVAVSGAIPRYLSCGFILEEGLPMETLKAVVTSMAETARAAGIAIVTGDTKVVQRGAVDKLFINTAGMGAIPANIHWGAQTLTAGDVLLVSGTLGDHGATILNLREQLGLDGELVSDCAVLTPLIQTLRDIPGVKALRDATRGGVNAVVHEFAAACGCGIELSEAALPVKPAVRGVCELLGLDALNFANEGKLVIAVERNAAEQVLAALHSHPLGKDAALIGEVVERKGVRLAGLYGVKRTLDLPHAEPLPRIC | not soluble |
| MREWINQSKIDLLAKEIGEENVPILVNIFLGELNDYQSKLVSDTVADKLGYLKEISHALKSSAASFGADRLCAKAVELDSRAKSGEMMDISLEVEHMLELLKQTHQCYSDLVH | not soluble |
